Square brackets hold non-standard residues; d marks the D form. Ends that are not written are not given here. pY = N[C@@H](Cc1ccc(OP(=O)(O)O)cc1)C(=O)O
Target: Human α-thrombin (human, UniProt P00734 328-622)
Experiment: fluorescence polarization competition against fluoresceinated γ′408-427 phosphorylated peptide, 2 µM α-thrombin

Binder: E[pY]DSL[pY]PEDDL [γ′ amino-terminal deletion peptide 417-427, phosphotyrosine at 418 and 422]
- binding result: no binding
